“Also recorded” adds a separate entry of the source.
What was measured:
[1] = tested on: purulent CF sputum; assay: Compaction assay of CF sputum treated in vitro with rhDNase; format: biochemical, human
Description: Approximately 100 μL of sputum was transferred into a tared Eppendorf microcentrifuge tube with a positive displacement pipet (Gilson Microman®, equipped with a stainless steel shaft and plastic plunger). Either rhDNase or control diluent was added as volume equaling 50% of the exact sputum sample weight. Eppendorf tubes were vigorously vortexed for 15 seconds and then incubated for 15 minutes at ambient temperature. Aliquants of the treated sputum were loaded into Kimax-51, 1.5−1.8×90 mm melting point capillary tubes (Kimble Products) using 50 μL Drummond glass capillary tube (Microcaps). The loaded tubes were centrifuged for 20 minutes at 12,000 rpm in a Biofuge A microcentrifuge (Heraeus Sepatech GmbH) equipped with a horizontal, hematocrit-type rotor head (Heraeus Sepatech) and the supernatant/pellet interface subsequently inspected for resolution. On occasion some samples required up to 20 additional minutes to resolve the supernatant-pellet interface clearly. In these cases, all samples loaded on the rotor were centrifuged for the greater duration. The total height of the material loaded into the capillary tubes and the pellet height were measured in millimeters. The percent pellet was calculated as the height of the pellet divided by the height of the total material loaded, multiplied by 100.

[2] = tested on: DNA in sputum samples; assay: Agarose gel electrophoresis of DNA length in sputum samples; format: biochemical, human; parameters: dose or concentration left out as unconfirmed; details: all six sputum samples; rhDNase, 20 minutes at 25° C.
Description: The length of the DNA in sputum samples was determined qualitatively by agarose gel electrophoresis as described by Shak et al., Supra. The effect of freezing on sputum DNA length was studied by electrophoresing samples with and without one cycle of freezing at −70° C. Samples were diluted four-fold in a buffer containing 100 mM NaCl, 5 mM EDTA, 0.5% SDS, 100 μg/ml proteinase K (Sigma), 50 mM Tris, pH 8.0, and incubated for three hours at 37° C. with occasional mixing. Samples were then electrophoresed in 0.5% agarose gels and stained with ethidium bromide by standard procedures (Sambrook, et al., Molecular Cloning: A Laboratory Manual, 2nd ed. Cold Spring Harbor Laboratory Press [1989]). A 1 Kb DNA ladder having 12 major bands between 500 bp to 12 Kb (Gibco/BRL 5615SA) was used as the molecular weight standard.

[3] = tested on: purulent CF sputum; assay: Dynamic cone and plate rheometry of sputum; parameters: species or system human; details: representative sputum sample, over the range of strain tested, FIG. 4
Description: Sputum rheological measurements were made at ambient temperature using the Rheometrics Fluid Rheometer (RFR-7800, Rheometrics Inc. Piscataway, N.J.) with a 0.02 radian, 25 mm radius cone and plate tool. Approximately 0.8 ml sputum was placed on the plate with 25 μL of diluent or rhDNase layered onto the top of the sputum. The cone was lowered onto the sample while the bottom plate was slowly rotated at. 5 rpm to evenly distribute the sample across the gap between the cone and plate. Drying at the sample edge was prevented by pipeting 0.1 poise silicon oil (Dow Chemical) onto the exposed edge of the cone. Rotation of the plate was stopped for five minutes to allow the sample to relax. Each preparation was tested at a deformation rate of 10 radians/sec and the percent strain was varied from 10% to 200% in 10% increments. Percent strain is defined as 100 times the distance of the shearing motion divided by the space between the cone and plate of the viscometer. The second strain value, 20% strain, was used for the comparisons between samples and treatments, being the lowest possible strain for accurate measurement. Instrument start-up frequently compromises the first data point and higher strains can damage network structures (Ferry, J Viscoelastic Properties of Polymers. 3rd ed. John Wiley and Sons, Inc. New York pg. 245-[1980]) resulting in artifacts and irreproducible data.

[4] = tested on: DNA in sputum samples; assay: Total DNA in pellet and supernatant fractions after compaction (DABA assay); format: biochemical, human; details: all six samples, FIG. 6
Description: Sputum sample DNA content was determined by a modification of the diaminobenzoic acid (DABA) assay developed by Kissane and Robins (J Biol Chem 233: 184–188 (1958]) which quantitates total DNA concentration independent of length. Previously frozen sputum aliquants were diluted tenfold with the assay diluent (25 mM HEPES, 1 mg/ml bovine serum albumin, 4 mM CaCl^2, 4 mM MgCl^2, 0.05% polysorbate 20, and 0.01% thimerasol, at pH 7.5) and incubated at 60° C. for one hour. Diluted specimens (50 μL) were pipeted into microtiter plate wells and 50 μL of a 20% 3,5-diaminobenzoic acid hydrochloride (DABA) solution was added after which the plates were tightly sealed. […] A Cytofluor (Millipore Corp.) microtiter plate flurometer (with 390 nm excitation and 530 nm emission filters) was used to read the plates. […] The coefficient of variation for the assay was determined to be <6%.
Approximately 100 μL of sputum was transferred into a tared Eppendorf microcentrifuge tube with a positive displacement pipet (Gilson Microman®, equipped with a stainless steel shaft and plastic plunger). […] The total height of the material loaded into the capillary tubes and the pellet height were measured in millimeters. The percent pellet was calculated as the height of the pellet divided by the height of the total material loaded, multiplied by 100.

[5] = rhDNase concentration in sputum after inhalation; format: in vivo, human; details: inhalation of 10 mg rhDNase; sputum collected one hour after inhalation
[6] = 1 and 4 mg/mL rhDNase solutions, aerosolized (Aitken et al., Hubbard et al.); cited from earlier work
[7] = catalytic amounts of rhDNase (Shak et al.); cited from earlier work

concentration above which rhDNase is maximally effective (fit of dose-response curve) ([1]; CF sputum sample, FIG. 7): above 1 μg/ml
concentration below which rhDNase is minimally effective (fit of dose-response curve) ([1]; CF sputum sample, FIG. 7): below 0.1 μg/ml
minimum in vitro rhDNase concentration showing activity in the compaction assay ([1]; in vitro, sputum): 1 μg rhDNase/mL sputum
B1: rhDNase: recombinant human DNase I cloned and expressed at Genentech; used as 4 mg/ml solution in 1 mM CaCl2, 150 mM NaCl, pH 7.4 (protein, UniProt P24855 23-282, looked up)
Deoxyribonuclease-1: LKIAAFNIQTFGETKMSNATLVSYIVQILSRYDIALVQEVRDSHLTAVGKLLDNLNQDAPDTYHYVVSEPLGRNSYKERYLFVYRPDQVSAVDSYYYDDGCEPCGNDTFNREPAIVRFFSRFTEVREFAIVPLHAAPGDAVAEIDALYDVYLDVQEKWGLEDVMLMGDFNAGCSYVRPSQWSSIRLWTSPTFQWLIPDSADTTATPTHCAYDRIVVAGMLLRGAVVPDSALPFNFQAAYGLSDQLAQAISDHYPVEVMLK
DNA size after hydrolysis (complete hydrolysis) [2]: less than 500 base pairs
effect on elasticity modulus [3]: more greatly affected
effect on viscosity modulus [3]: reduced measured values of viscosity
distribution of total DNA between pellet and supernatant following compaction [4]: redistribution of total DNA from the pellet to the supernatant
concentrations of rhDNase in sputum [5]: 1000 to 20000 ng/mL
pulmonary function in CF patients [6]: increased pulmonary function; also recorded: improved lung function
viscosity of purulent cystic fibrosis sputum [7]: greatly reduced the viscosity

Reference: patent US7193055B2, “Compaction assay for assessment of respiratory disease therapy” (Genentech, Inc., priority 1992, dated 2007)
